{
  "source": "patent US20210009673A1",
  "about": "“METHODS FOR REGULATING BREAST CANCERS” (priority 2018, published 2021)",
  "molecules": {"B1": {"name": "pleiotrophin (protein, UniProt P21246 33-168, looked up)", "Pleiotrophin": "GKKEKPEKKVKKSDCGEWQWSVCVPTSGDCGLGTREGTRTGAECKQTMKTQRCKIPCNWKKQFGAECKYQFQAWGECDLNTALKTRTGSLKRALHNAECQKTVTISKPCGKLTKPKPQAESKKKKKEGKKQEKMLD"}},
  "key": {"[1]": {"test_system": "MCF10A cells", "test": "morphological epithelial to mesenchymal transition in transfected MCF10A cells", "format": "cell-based", "settings": "MCF10A cells transfected with RPTPβ/ζ and ALK, stimulated with PTN", "description": "FIG. 4: FIG. 4 illustrates in: (A), β-catenin phosphorylated by ALK at tyrosine 333 decreases the association of β-catenin with cadherin. Recombinant E-cadherin serine 692 was phosphorylated with CK2 and GSK3β and incubated with recombinant GST-β-catenin, with GST-β-catenin phosphorylated in vitro by ALK, with GST-β-catenin Y333F, or with GST-β-catenin K292A, Y333F, K335A. The GST-conjugated proteins were captured with glutathione-conjugated beads and the phospho-Ser692-E-cadherin that associated with the GST-conjugated proteins was eluted and analyzed in Western blots probed with anti-β-catenin and anti-E-cadherin antibodies. […] After incubation for 20 minutes at 37° C., β-catenin was then captured with glutathione beads and, after extensive washing, eluted with SDS buffer and analyzed in Western blots with either anti-pan-cadherin antibodies, anti-phospho-tyrosine antibodies, or anti-β-catenin antibodies to determine if β-catenin phosphorylated by ALK at tyrosine 333 associates with cadherin. […] The ratio of cells dissociated in calcium-containing media (NTC) vs. the cells dissociated in calcium-free media (NTE) (a “dissociation index,” see Experimental Procedures) was measured. […] The morphological appearance was then analyzed 36 hours later and compared with cells transfected with an equal amount of control empty vector. […]"}, "[2]": {"test_system": "β-catenin", "test": "PTN-stimulated tyrosine phosphorylation of β-catenin in COS-7 cells (immunoprecipitation, Western blot)", "format": "cell-based", "description": "(§1) FIG. 1: FIG. 1 illustrates in (A) PTN stimulation of tyrosine phosphorylation of β-catenin in cells that express RPTPβ/ζ and ALK. COS7 cells transiently expressing ALK and RPTPβ/ζ were stimulated with 10 ng PTN/ml. Cell lysates were prepared and used to immunoprecipitate β-catenin. The immunoprecipitates were analyzed in Western blots probed with anti-phosphotyrosine antibodies. Lane 1, cells transfected with ALK that were not stimulated with PTN. Lane 2, cells transfected with ALK stimulated with PTN. Lane 3, cells transfected with empty vector not stimulated with PTN. Lane 4, cells transfected with empty vector stimulated with PTN. […] The immunoprecipitates were analyzed in Western blots probed with anti-phosphotyrosine antibodies. […] Cell lysates were used to immunoprecipitate β-catenin and the immunoprecipitates were analyzed in Western blots probed with anti-phospho-tyrosine antibodies and reprobed with anti-β-catenin antibodies. […] MCF-7 cells that stably express EGFR/RPTPβ/ζ not transfected with ALK were analyzed as above. […] Lysates of MCF-7 cells and lysates of MCF-7 cells stimulated with EGF were used to immunoprecipitate β-catenin and the immunoprecipitates were analyzed in Western blots probed with anti-phospho-tyrosine antibodies and separately with anti-β-catenin antibodies. […]"}, "[3]": {"test_system": "β-catenin", "test": "tyrosine phosphorylation of β-catenin in PTN-stimulated U87MG cells", "format": "cell-based, human", "settings": "control U87MG cells; 50 ng PTN/ml", "description": "as §1"}},
  "data": [
    {"molecule": "B1", "values": [
      {"measurement": "cell morphology", "setting": "[1]", "value": "assumed a mesenchymal fibroblast-like shape"},
      {"measurement": "tyrosine phosphorylation of β-catenin", "setting": "[2]; COS-7 cells expressing RPTPβ/ζ alone", "value": "failed to stimulate"},
      {"measurement": "increased tyrosine phosphorylation of β-catenin", "setting": "[2]; COS-7 cells expressing both ALK and RPTPβ/ζ, 10 ng PTN/ml", "value": "about 3 fold"},
      {"measurement": "phosphorylation of β-catenin", "setting": "[3]", "value": "sharply increased"}
    ]}
  ]
}
